Experimental data from PMC12090751 (Journal of Virology, 2025).

Key:
[1] = target: HA1 F1 (aa 11-329) displayed on yeast as Aga2 fusion (Influenza A virus H5, Re8 vaccine …, UniProt Q9Q0U6, strain); assay: immunostaining of cells or tissue; conditions: one partner purified
[2] = target: HA1 fragment F7 (aa 50-271) displayed on yeast as Aga2 fusion (Influenza A virus H5, Re8 vaccine …, UniProt Q9Q0U6, strain); assay: immunostaining of cells or tissue; conditions: one partner purified

B1: Nb10 with Twin-Strep-tag (VHH)
VHH: QVQLQESGGGSVQAGGSLRLSCSASEYTRSMAWFRQVPGKEREGVAAIDTGNGNTYYPTVDGRFIISRGNAKNSVDLEMNSLTPDDTAIYYCAATQGPLWPTLGTQFSTESYNYWGQGTLVTVSS
Question: Which results are given for B1?
Answer: binding result [1]: binds; binding result [2]: binds
